Test results as given in patent publication US9006178 (Novo Nordisk, dated 2015).
*1 amine or outer side, *2 acyl side, *3 side chain or, on linkers, in order; H or OH if unused. Where no end group is shown, it is not given here. Side-chain parts run from the residue outwards. [ ]: non-standard residue; d: D form. The star is where a group is joined. Dodecanoyl(12-OPh(4-COOH)) = O=C(O)c1ccc(OCCCCCCCCCCCC(=O)*)cc1; Decanoyl(10-(4-HOOC-PhO)) = O=C(O)c1ccc(OCCCCCCCCCC(=O)*)cc1; C18 diacid = O=C(O)CCCCCCCCCCCCCCCCC(=O)*; C16 diacid = O=C(O)CCCCCCCCCCCCCCC(=O)*; γGlu = O=C(O)[C@H](CCC(=O)[*:2])N[*:1]; Desaminohistidyl = O=C(CCc1c[nH]cn1)*; εLys = N[C@@H](CCCCN[*:1])C(=O)[*:2]; AEEA = NCCOCCOCC(=O)O; Aib = CC(C)(N)C(=O)O

B1: N^ε18-[(2S)-2-amino-6-[[(2S)-2-amino-6-[[(4S)-4-carboxy-4-(17-carboxyheptadecanoylamino)butanoyl]amino]hexanoyl]amino]hexanoyl], … (peptide)
peptide: H[Aib]EGTFTSDVSK([εLys-εLys-γGlu-C18 diacid])YLEGQAAK([εLys-εLys-γGlu-C18 diacid])EFIAWLVQGRG
notes: Double-acylated GLP-1 analogue; positions are counted with His as no
B2: N^ε18-[2-[2-[2-[[(2S)-2-amino-6-[[2-[2-[2-[[(4S)-4-carboxy-4-[10-(4-carboxyphenoxyl)decanoylamino]butanoyl]amino]ethoxy]ethoxy]acetyl]amino]hexanoyl]amino]ethox … (peptide)
peptide: [Desaminohistidyl][Aib]EGTFTSDVSK([AEEA-εLys-AEEA-γGlu-Decanoyl(10-(4-HOOC-PhO))])YLEEQAAK([AEEA-εLys-AEEA-γGlu-Decanoyl(10-(4-HOOC-PhO))])EFIAWLVQGRG
notes: Double-acylated GLP-1 analogue; positions are counted with residue 1 of the entry as no
B3: N^ε18-[(2S)-2-amino-6-[[(2S)-2-amino-6-[[(4S)-4-carboxy-4-(15-carboxypentadecanoylamino)butanoyl]amino]hexanoyl]amino]hexanoyl], … (peptide)
peptide: H[Aib]EGTFTSDVSK([εLys-εLys-γGlu-C16 diacid])YLEGQAAK([εLys-εLys-γGlu-C16 diacid])EFIAWLVQGRG
notes: as for B1
B4: N^ε18-[(2S)-2-amino-6-[[(4S)-4-carboxy-4-(15-carboxypentadecanoylamino)butanoyl]amino]hexanoyl], … (peptide)
peptide: H[Aib]EGTFTSDVSK([εLys-γGlu-C16 diacid])YLEGQAAK([εLys-γGlu-C16 diacid])EFIAWLVQGRG
notes: as for B1
B5: N^ε18-[(2S)-2-amino-6-[[2-[2-[2-[[(4S)-4-carboxy-4-(15-carboxypentadecanoylamino)butanoyl]amino]ethoxy]ethoxy]acetyl]amino]hexanoyl], … (peptide)
peptide: H[Aib]EGTFTSDVSK([εLys-AEEA-γGlu-C16 diacid])YLEGQAAK([εLys-AEEA-γGlu-C16 diacid])EFIAWLVQGRG
notes: as for B1
B6: N^ε18-[(2S)-2-amino-6-[[2-[2-[2-(15-carboxypentadecanoylamino)ethoxy]ethoxy]acetyl]amino]hexanoyl], … (peptide)
peptide: H[Aib]EGTFTSDVSK([εLys-AEEA-C16 diacid])YLEGQAAK([εLys-AEEA-C16 diacid])EFIAWLVQGRG
notes: as for B1
B7: N^ε18-[(2S)-2-amino-6-[[(2S)-2-amino-6-[[(4S)-4-carboxy-4-[12-(4-carboxyphenoxy)dodecanoylamino]butanoyl]amino]hexanoyl]amino]hexanoyl], … (peptide)
peptide: H[Aib]EGTFTSDVSK([εLys-εLys-γGlu-Dodecanoyl(12-OPh(4-COOH))])YLEGQAAK([εLys-εLys-γGlu-Dodecanoyl(12-OPh(4-COOH))])EFIAWLVQGRG
notes: as for B1
B8: N^ε18-[(2S)-2-amino-6-[[2-[2-[2-[[2-[2-[2-[[(4S)-4-carboxy-4-[12-(4-carboxyphenoxy)dodecanoylamino]butanoyl]amino]ethoxy]ethoxy]acetyl]amino]ethoxy]ethoxy]acety … (peptide)
peptide: H[Aib]EGTFTSDVSK([εLys-AEEA-AEEA-γGlu-Dodecanoyl(12-OPh(4-COOH))])YLEGQAAK([εLys-AEEA-AEEA-γGlu-Dodecanoyl(12-OPh(4-COOH))])EFIAWLVQGRG
notes: as for B1
B9: N^ε18-[2-[2-[2-[[(2S)-2-amino-6-[[2-[2-[2-[[(4S)-4-carboxy-4-[10-(4-carboxyphenoxyl)decanoylamino]butanoyl]amino]ethoxy]ethoxy]acetyl]amino]hexanoyl]amino]ethox … (peptide)
peptide: [Desaminohistidyl]AEGTFTSDVSK([AEEA-εLys-AEEA-γGlu-Decanoyl(10-(4-HOOC-PhO))])YLEEQAVREFIAK([AEEA-εLys-AEEA-γGlu-Decanoyl(10-(4-HOOC-PhO))])LVRGRG
notes: as for B2
B10: N^ε18-[(2S)-2-amino-6-[[(2S)-2-amino-6-[[(4S)-4-carboxy-4-[10-(4-carboxyphenoxyl)decanoylamino]butanoyl]amino]hexanoyl]amino]hexanoyl], … (peptide)
peptide: H[Aib]EGTFTSDVSK([εLys-εLys-γGlu-Decanoyl(10-(4-HOOC-PhO))])YLEGQAAK([εLys-εLys-γGlu-Decanoyl(10-(4-HOOC-PhO))])EFIAWLVQGRG
notes: as for B1
B11: N^ε18-[(2S)-2-amino-6-[[(2S)-2-amino-6-[[(4S)-4-carboxy-4-[10-(4-carboxyphenoxyl)decanoylamino]butanoyl]amino]hexanoyl]amino]hexanoyl], … (peptide)
peptide: H[Aib]EGTFTSDVSK([εLys-εLys-γGlu-Decanoyl(10-(4-HOOC-PhO))])QLEEQAAK([εLys-εLys-γGlu-Decanoyl(10-(4-HOOC-PhO))])EFIAWLVQGRG

target: T1, human GLP-1 receptor (human, UniProt P43220 24-463); experiment: SPA displacement of [125I]-GLP-1(7-36)NH2 from human GLP-1 receptor membranes, low albumin (0.005% HSA)
T1 construct: whole, on cells; also called hGLP-1
Description: (§1) 25 ul (microliter) of test compounds are added to Optiplate. HSA ("high albumin" experiment containing 2% HSA), or buffer ("low albumin" experiment containing 0.005% HSA), was added (50 ul). 5-10 ug protein/sample was added (50 ul) corresponding to 0.1-0.2 mg protein/ml (to be preferably optimised for each membrane preparation). SPA-particles (Wheatgerm agglutinin SPA beads, Perkin Elmer, #RPNQ0001) were added in an amount of 0.5 mg/well (50 ul). […] The plates were sealed with PlateSealer and incubated for 120 minutes at 30° C. while shaking. The plates were centrifuged (1500 rpm, 10 min) and counted in Topcounter.

| Molecule | IC50 |
| --- | --- |
| N^ε18-[(2S)-2-amino-6-[[(4S)-4-carboxy-4-(13-carboxytridecanoylamino)butanoyl]amino]hexanoyl], N^ε26-[(2S)-2-amino-6-[[(4S)-4-carboxy-4-(13-carboxytridecanoylamino)butanoyl]amino]hexanoyl]-[Lys^8,Glu^22,Gln^34] (SEQ ID NO: 11)-GLP-1-(7-37)-peptide | < 35 nM |
| N^ε18-[(2S)-2-amino-6-[[2-[2-[2-[[(4S)-4-carboxy-4-(13-carboxytridecanoylamino)butanoyl]amino]ethoxy]ethoxy]acetyl]amino]hexanoyl], N^ε26-[(2S)-2-amino-6-[[2-[2-[2-[[(4S)-4-carboxy-4-(13-carboxytridecanoylamino)butanoyl]amino]ethoxy]ethoxy]acetyl]amino]hexanoyl]-[Lys^18,Glu^22,Gln^34] (SEQ ID NO: 11)-GLP-1-(7-37)-peptide | < 35 nM |
| N^ε18-[(2S)-2-amino-6-[[(2S)-2-amino-6-[[(4S)-4-carboxy-4-[8-[10-(4-carboxyphenoxyl)decanoylamino]octanoylamino]butanoyl]amino]hexanoyl]amino]hexanoyl], N^ε26-[(2S)-2-amino-6-[[(2S)-2-amino-6-[[(4S)-4-carboxy-4-[8-[10-(4-carboxyphenoxyl)decanoylamino]octanoylamino]butanoyl]amino]hexanoyl]amino]hexanoyl]-[Aib^8,Lys^18,Glu^22,Gln^34] (SEQ ID NO: 9)-GLP-1-(7-37)-peptide | < 35 nM |
| N^ε18-[(2S)-2-amino-6-[[(2S)-2-amino-6-[[(4S)-4-carboxy-4-[10-(4-carboxyphenoxyl)decanoylamino]butanoyl]amino]hexanoyl]amino]hexanoyl], N^ε26-[(2S)-2-amino-6-[[(2S)-2-amino-6-[[(4S)-4-carboxy-4-[10-(4-carboxyphenoxyl)decanoylamino]butanoyl]amino]hexanoyl]amino]hexanoyl]-[Aib^8,Lys^18,Glu^22,Gln^34] (SEQ ID NO: 9)-GLP-1-(7-37)-peptide | < 35 nM |
| B1 | < 35 nM |
| B2 | < 35 nM |
| B3 | < 35 nM |
| B4 | < 35 nM |
| B5 | < 35 nM |
| B6 | < 35 nM |
| B7 | < 35 nM |
| B8 | < 35 nM |
| B9 | < 35 nM |
| B10 | < 35 nM |
| B11 | < 35 nM |

target: T1, human GLP-1 receptor; experiment: SPA displacement of [125I]-GLP-1(7-36)NH2 from human GLP-1 receptor membranes; IC50 at 2.0% HSA divided by IC50 at 0.005% HSA
Description: as §1

| Molecule | ratio [(IC50/nM) high HSA]/[(IC50/nM) low HSA] |
| --- | --- |
| B1 | > 10 |
| B2 | > 10 |
| B3 | > 10 |
| B4 | > 10 |
| B5 | > 10 |
| B6 | > 10 |
| B7 | > 10 |
| B8 | > 10 |
| B9 | > 10 |
| B10 | > 10 |
| B11 | > 10 |
